Numbering of substitutions follows the chain as printed. In names and notes the source's numbering stands.
B1: wild-type 9°N-7 polymerase: Wild-type family B DNA polymerase from Thermococcus sp. 9°N-7 (protein, UniProt Q56366 1-775, looked up)
DNA polymerase: MILDTDYITENGKPVIRVFKKENGEFKIEYDRTFEPYFYALLKDDSAIEDVKKVTAKRHGTVVKVKRAEKVQKKFLGRPIEVWKLYFNHPQDVPAIRDRIRAHPAVVDIYEYDIPFAKRYLIDKGLIPMEGDEELTMLAFDIETLYHEGEEFGTGPILMISYADGSEARVITWKKIDLPYVDVVSTEKEMIKRFLRVVREKDPDVLITYNGDNFDFAYLKKRCEELGIKFTLGRDGSEPKIQRMGDRFAVEVKGRIHFDLYPVIRRTINLPTYTLEAVYEAVFGKPKEKVYAEEIAQAWESGEGLERVARYSMEDAKVTYELGREFFPMEAQLSRLIGQSLWDVSRSSTGNLVEWFLLRKAYKRNELAPNKPDERELARRRGGYAGGYVKEPERGLWDNIVYLDFRSLYPSIIITHNVSPDTLNREGCKEYDVAPEVGHKFCKDFPGFIPSLLGDLLEERQKIKRKMKATVDPLEKKLLDYRQRAIKILANSFYGYYGYAKARWYCKECAESVTAWGREYIEMVIRELEEKFGFKVLYADTDGLHATIPGADAETVKKKAKEFLKYINPKLPGLLELEYEGFYVRGFFVTKKKYAVIDEEGKITTRGLEIVRRDWSEIAKETQARVLEAILKHGDVEEAVRIVKEVTEKLSKYEVPPEKLVIHEQITRDLRDYKATGPHVAVAKRLAARGVKIRPGTVISYIVLKGSGRIGDRAIPADEFDPTKHRYDAEYYIENQVLPAVERILKAFGYRKEDLRYQKTKQVGLGAWLKVKGKK
B2: R743A: 9°N-7 YAV C223S exo- polymerase with alanine substitution at Arg743 in the thumb subdomain (protein)
chain: B1 DNA polymerase with D141S, E143S, C223S, L408Y, Y409A, P410V, A485L, R743A
modifications: Codon optimised thumb mutant polymerase
notes: 9°N-7 YAV C223S exo- polymerase with alanine substitution at Arg743 in the thumb subdomain

Columns and labels:
DNA = conditions: wild-type enzyme; Southworth et al. 1996; read-out: Kd (affinity for DNA); cited from earlier work
[1] = tested on: surface-coupled A-template hairpin (oligo 815); test: NUNC tube assay using crude protein preparation: incorporation of ffTTP into surface-coupled hairpin; format: biochemical; conditions: crude enzyme, 5 μM ffT-N3-647, 45° C., 30 minutes; samples not normalised for concentration
Description: Small 5 ml cultures of the mutant enzymes (along with a culture of YAV C223S exo- for direct comparison) were taken through a quick purification as outlined in WO 2005/024010 up until the heat treatment step. At this point, the samples were considered to be sufficiently pure to test their activity.
The buffers for each of the crude preparations were exchanged into enzymology buffer (50 mM Tris pH 8.0, 6 mM MgSO4, 1 mM EDPA, 0.05% Tween20) using an S300 gel filtration spin-column. The samples were not normalised for concentration. The test employed was a simple incorporation of ffTTP into surface-coupled A-template hairpin. 2 pmoles of 5′-amino oligo 815 (5′-[…] […]-3′) (SEQ ID NO: 17) was coupled to a NUNC-nucleolink strip according to the manufacturers protocol.
Once washed, each well was incubated with a 20 µl aliquot of a crude enzyme preparation (identity of enzyme listed below) and 5 µM ffT-N3-647. The strip was then incubated at 45° C. for 30 minutes. The experiment was performed in duplicate. Upon completion of the 30 minute incubation, wells were washed with 3×100 µl of high salt wash buffer (10 mM Tris pH 8.0, 1M NaCl, 10 mM EDTA) and then 3×100 µl of MilliQ water. Strips were scanned on a typhoon fluorescence imager CY5 filter, PMT=450 V).
The fluorescence density is proportional to the amount of ffTTP incorporation—the darker the well, the greater the level of incorporation. […]

[2] = tested on: ffT-N3-cy3 incorporation into A template hairpin oligo 815; test: Incorporation kinetics of ffT-N3-cy3 (NUNC tube assay, Michaelis plots); format: biochemical; conditions: 45° C., [DNA]<<[pol] or [ffNTP]
Description: The kinetic characterization of the enzymes was conducted using NUNC tube assay and involved the measurement of rate constants for the first order incorporation of ffT N3 cy3 where [DNA]<<[pol] or [ffNTP], at a variety of [ffTTP]. Below is described the methodology used for each of the three polymerases tested.
Six (1×8) NUNC nucleolink strips were functionalized with 2 pmoles of 5′-amino A template hairpin oligo 815 (5′ H2N-[…] ATGCACATCAGCG-3′) (SEQ ID NO: 18), according to the manufacturer's protocol.
Each strip was employed for a time-course experiment at a particular (ffT-N3-cy3). […]
Time-courses were initiated by addition of a 20 μl aliquot of 2× enzymology mix (X μM ffT-N3-cy3, 1.1 μM polymerase in enzymology buffer) pre-equilibrated at 45° C. for 2 minutes using an 8-channel multipipette in order to start reactions in individual wells at identical time-points. […] After reactions in all 8 wells stopped, strips were washed with […] high salt wash (10 mM Tris pH 8.0, 1 M NaCl, 10 mM EDTA) and then […] MilliQ water and then scanned on a Typhoon fluorescence imager (Cy3 filter, PMT=500 V). Fluorescence intensities in each well were quantified using Imagequant. Plotting the variation in Cy3 fluorescence intensity vs. time generates time-course graphs. […]

10A hairpin DNA [3] = test: Single base incorporation assay, crude enzyme preparations (normalised concentrations); format: biochemical; conditions: first base incorporation of ffTTP
Description: The activity of the crude enzyme preparations (normalised concentrations) was measured using the single base incorporation assay as described in WO 2005/024010. 10 minute incubations were run with either 30 or 3 μg/ml crude enzyme preparation in the presence of 2 μM ffT-N3-cy3 and 20 nM 10A hairpin DNA (^32P-labelled), aliquots of the reaction mixture were withdrawn at 0, 30, 60, 180 and 600 s and run on a 12% acrylamide gel.
The band intensities were quantified using Imagequant and the fluorescence intensity plotted versus incubation time to generate the time-courses shown in FIG. 4.

10A hairpin DNA [4] = test: Single base incorporation assay for purified polymerases where [DNA] is greater than [pol]; format: biochemical; conditions: 4 nM purified enzyme, 2 μM ffT-N3-cy3
Description: The activity of the purified enzyme preparations of Clone 9 polymerase (YAV C223S exo-) and the thumb sub-domain mutants K705A, R713A and R743A was measured using the single base incorporation assay as described in WO 2005/024010. The experiment was carried out such that the respective concentrations of DNA and polymerase were at a ratio of approximately 5:1. Thus, the ability of the enzyme to incorporate nucleotides into multiple DNA template molecules in a single reaction cycle was investigated. 30 minute incubations were run with 4 nM purified enzyme in the presence of 20 nM 10A hairpin DNA (^32P-labelled) and 2 μM ffT-N3-cy3, aliquots of the reaction mixture were withdrawn at 0, 15, 30, 60, 180, 480, 900 and 1800 s intervals and run on a 12% acrylamide gel.
The band intensities were quantified using Imagequant and the fluorescence intensity, converted into percentage completion (based on the relative intensities of the starting material and final product bands on the gel) plotted versus incubation time to generate the timecourses shown in FIG. 5.

Row | Molecule | Kd (DNA) | improvement in level of incorporation over clone 9 [1] | kpol [2] | activity relative to YAV (in words) (10A hairpin DNA [3]) | amplitude of the burst (exponential) phase, percentage completion (10A hairpin DNA [4]; 20 nM 10A hairpin DNA (ratio 5:1)) | observed rate constant kobs for the burst phase (10A hairpin DNA [4]; crude fitting of timecourses, 20 nM 10A hairpin DNA)
1 | B1 | 0.05 nM |  |  |  |  | 
2 | B2 |  | ~45% | 0.068 s⁻¹ | comparable activities to YAV | ~90% | ~0.004 s⁻¹

— US10059928B2, “Polymerases” (Illumina Cambridge Limited, priority 2005, dated 2018)
